The values that follow come from US20210388087A1 (Chugai, published 2021).

Changes are numbered by the printed parent chain.

B1: CE115HA000 A52aD (antibody, human IgG1, kappa, L234A L235A, N297A, name in Kabat numbering)
heavy: QVQLVESGGGVVQPGRSLRLSCAASGFTFSNAWMHWVRQAPGKGLEWVAQIKDKSNNYATYYAESVKGRFTISRDDSKNSLYLQMNSLKTEDTAVYYCRYVHYGAYYGVDAWGQGTTVTVSSASTKGPSVFPLAPSSKSTSGGTAALGCLVKDYFPEPVTVSWNSGALTSGVHTFPAVLQSSGLYSLSSVVTVPSSSLGTQTYICNVNHKPSNTKVDKKVEPKSCDKTHTCPPCPAPEAAGGPSVFLFPPKPKDTLMISRTPEVTCVVVDVSHEDPEVKFNWYVDGVEVHNAKTKPREEQYASTYRVVSVLTVLHQDWLNGKEYKCKVSNKALPAPIEKTISKAKGQPREPQVYTLPPSRCELTKNQVSLSCAVKGFYPSDIAVEWESNGQPENNYKTTPPVLDSDGSFFLVSKLTVDKSRWQQGNVFSCSVMHEALHNHYTQKSLSLSPDYKDDDDK
chain: EPKSSDKTHTCPPCPAPELLGGPSVFLFPPKPKDTLMISRTPEVTCVVVDVSHEDPEVKFNWYVDGVEVHNAKTKPREEQYNSTYRVVSVLTVLHQDWLNGKEYKCKVSNKALPAPIEKTISKAKGQPREPQVCTLPPSRDELTKNQVSLWCLVKGFYPSDIAVEWESNGQPENNYKTTPPVLDSDGSFFLYSKLTVDKSRWQQGNVFSCSVMHEALHNRYTQKSLSLSP
light: DIVMTQSPLSLPVTPGEPASISCRSSQSLVHSNRNTYLHWYQQKPGQAPRLLIYKVSNRFSGVPDRFSGSGSGTDFTLKISRVEAEDVGVYYCGQGTQVPYTFGQGTKLEIKRTVAAPSVFIFPPSDEQLKSGTASVVCLLNNFYPREAKVQWKVDNALQSGNSQESVTEQDSKDSTYSLSSTLTLSKADYEKHKVYACEVTHQGLSSPVTKSFNRGEC
notes: one-arm antibody
B2: CE115HA000 A99Q (antibody, human IgG1, kappa, L234A L235A, N297A, name in Kabat numbering)
heavy: B1 heavy with D53A, A105Q
chain: B1 chain
light: B1 light
notes: one-arm antibody
B3: CE115HA000 A52aY (antibody, human IgG1, kappa, L234A L235A, N297A, name in Kabat numbering)
heavy: B1 heavy with D53Y
chain: B1 chain
light: B1 light
notes: one-arm antibody
B4: CE115HA000 A52aE (antibody, human IgG1, kappa, L234A L235A, N297A, name in Kabat numbering)
heavy: B1 heavy with D53E
chain: B1 chain
light: B1 light
notes: one-arm antibody
B5: CE115HA000 A56L (antibody, human IgG1, kappa, L234A L235A, N297A, name in Kabat numbering)
heavy: B1 heavy with D53A, A59L
chain: B1 chain
light: B1 light
notes: one-arm antibody
B6: CE115HA000 A102P (antibody, human IgG1, kappa, L234A L235A, N297A, name in Kabat numbering)
heavy: B1 heavy with D53A, A111P
chain: B1 chain
light: B1 light
notes: one-arm antibody
B7: CE115HA000 A60D (antibody, human IgG1, kappa, L234A L235A, N297A, name in Kabat numbering)
heavy: B1 heavy with D53A, A63D
chain: B1 chain
light: B1 light
notes: one-arm antibody
B8: CE115HA000 A99D (antibody, human IgG1, kappa, L234A L235A, N297A, name in Kabat numbering)
heavy: B1 heavy with D53A, A105D
chain: B1 chain
light: B1 light
notes: one-arm antibody
B9: CE115HA000 A60E (antibody, human IgG1, kappa, L234A L235A, N297A, name in Kabat numbering)
heavy: B1 heavy with D53A, A63E
chain: B1 chain
light: B1 light
notes: one-arm antibody
B10: CE115HA000 A56Q (antibody, human IgG1, kappa, L234A L235A, N297A, name in Kabat numbering)
heavy: B1 heavy with D53A, A59Q
chain: B1 chain
light: B1 light
notes: one-arm antibody
B11: CE115HA000 A56N (antibody, human IgG1, kappa, L234A L235A, N297A, name in Kabat numbering)
heavy: B1 heavy with D53A, A59N
chain: B1 chain
light: B1 light
notes: one-arm antibody
B12: CE115HA000 A52aG (antibody, human IgG1, kappa, L234A L235A, N297A, name in Kabat numbering)
heavy: B1 heavy with D53G
chain: B1 chain
light: B1 light
notes: one-arm antibody
B13: CE115HA000 A52aV (antibody, human IgG1, kappa, L234A L235A, N297A, name in Kabat numbering)
heavy: B1 heavy with D53V
chain: B1 chain
light: B1 light
notes: one-arm antibody
B14: CE115HA000 D72A (antibody, human IgG1, kappa, L234A L235A, N297A, name in Kabat numbering)
heavy: B1 heavy with D53A, D75A
chain: B1 chain
light: B1 light
notes: one-arm antibody
B15: CE115HA000 A56Y (antibody, human IgG1, kappa, L234A L235A, N297A, name in Kabat numbering)
heavy: B1 heavy with D53A, A59Y
chain: B1 chain
light: B1 light
notes: one-arm antibody
B16: CE115HA000 A102Y (antibody, human IgG1, kappa, L234A L235A, N297A, name in Kabat numbering)
heavy: B1 heavy with D53A, A111Y
chain: B1 chain
light: B1 light
notes: one-arm antibody
B17: CE115HA000 D72V (antibody, human IgG1, kappa, L234A L235A, N297A, name in Kabat numbering)
heavy: B1 heavy with D53A, D75V
chain: B1 chain
light: B1 light
notes: one-arm antibody
B18: CE115HA000 D72E (antibody, human IgG1, kappa, L234A L235A, N297A, name in Kabat numbering)
heavy: B1 heavy with D53A, D75E
chain: B1 chain
light: B1 light
notes: one-arm antibody
B19: CE115HA000 A99L (antibody, human IgG1, kappa, L234A L235A, N297A, name in Kabat numbering)
heavy: B1 heavy with D53A, A105L
chain: B1 chain
light: B1 light
notes: one-arm antibody
B20: CE115HA000 A52aS (antibody, human IgG1, kappa, L234A L235A, N297A, name in Kabat numbering)
heavy: B1 heavy with D53S
chain: B1 chain
light: B1 light
notes: one-arm antibody
B21: CE115HA000 A99T (antibody, human IgG1, kappa, L234A L235A, N297A, name in Kabat numbering)
heavy: B1 heavy with D53A, A105T
chain: B1 chain
light: B1 light
notes: one-arm antibody
B22: CE115HA000 A56K (antibody, human IgG1, kappa, L234A L235A, N297A, name in Kabat numbering)
heavy: B1 heavy with D53A, A59K
chain: B1 chain
light: B1 light
notes: one-arm antibody
B23: CE115HA000 A56G (antibody, human IgG1, kappa, L234A L235A, N297A, name in Kabat numbering)
heavy: B1 heavy with D53A, A59G
chain: B1 chain
light: B1 light
notes: one-arm antibody
B24: CE115HA000 A56D (antibody, human IgG1, kappa, L234A L235A, N297A, name in Kabat numbering)
heavy: B1 heavy with D53A, A59D
chain: B1 chain
light: B1 light
notes: one-arm antibody
B25: CE115HA000 D73A (antibody, human IgG1, kappa, L234A L235A, N297A, name in Kabat numbering)
heavy: B1 heavy with D53A, D76A
chain: B1 chain
light: B1 light
notes: one-arm antibody
B26: CE115HA000 A52aP (antibody, human IgG1, kappa, L234A L235A, N297A, name in Kabat numbering)
heavy: B1 heavy with D53P
chain: B1 chain
light: B1 light
notes: one-arm antibody
B27: CE115HA000 A99K (antibody, human IgG1, kappa, L234A L235A, N297A, name in Kabat numbering)
heavy: B1 heavy with D53A, A105K
chain: B1 chain
light: B1 light
notes: one-arm antibody
B28: CE115HA000 A102I (antibody, human IgG1, kappa, L234A L235A, N297A, name in Kabat numbering)
heavy: B1 heavy with D53A, A111I
chain: B1 chain
light: B1 light
notes: one-arm antibody
B29: CE115HA000 A99F (antibody, human IgG1, kappa, L234A L235A, N297A, name in Kabat numbering)
heavy: B1 heavy with D53A, A105F
chain: B1 chain
light: B1 light
notes: one-arm antibody
B30: CE115HA000 A99Y (antibody, human IgG1, kappa, L234A L235A, N297A, name in Kabat numbering)
heavy: B1 heavy with D53A, A105Y
chain: B1 chain
light: B1 light
notes: one-arm antibody
B31: CE115HA000 A102V (antibody, human IgG1, kappa, L234A L235A, N297A, name in Kabat numbering)
heavy: B1 heavy with D53A, A111V
chain: B1 chain
light: B1 light
notes: one-arm antibody
B32: CE115HA000 A99S (antibody, human IgG1, kappa, L234A L235A, N297A, name in Kabat numbering)
heavy: B1 heavy with D53A, A105S
chain: B1 chain
light: B1 light
notes: one-arm antibody

The target of the assay is T1, CD3 epsilon homodimer protein (UniProt P07766 23-126).
T1 construct: also called CD3 (CD3 epsilon)
T1 sequence (P07766 23-126): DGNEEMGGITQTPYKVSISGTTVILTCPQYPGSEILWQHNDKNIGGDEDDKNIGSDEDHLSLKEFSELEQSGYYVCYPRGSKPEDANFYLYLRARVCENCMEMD
Nature of the assay: SPR, CD3 epsilon homodimer on chip, one-arm antibody as analyte.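 Also: surface plasmon resonance at 25 °C with CD3 epsilon homodimer amine-coupled to a CM4 sensor chip, antibody injected as analyte, HBS-EP+ as running buffer.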
As for B1, the “KD ratio (KD of CE115HA000/KD of altered form)” value (from here on “KD ratio”) amounted to 1.35. Under B2 stands 0.85; under B3, 7.71; under B4, 0.89.

As to B5, the “KD ratio” value stood at 0.77.

For B6, the “KD ratio” value was determined as 3.51. Then B7, with 0.94; and B8, with 1.03.

With B9, the “KD ratio” value amounted to 0.88. Under B10 stands 0.74; under B11, 0.84. Consider B12, for which the “KD ratio” value was determined as 0.61. On to B13, for which the “KD ratio” value was 0.95. Under B14 stands 1.19.

Regarding B15, the “KD ratio” value amounted to 0.63.

Turning to B16, the “KD ratio” value was 1. Turning to B17, the “KD ratio” value is 1.17. Then B18, with 0.73; and B19, with 1. Under B20 stands 0.82; under B21, 0.93.

For the molecule B22, the “KD ratio” value came to 1.32. Then B23, with 0.59; and B24, with 0.71; and B25, with 0.73. Then B26, with 5. Under B27 stands 1.4. Consider B28, for which the “KD ratio” value is 1.29.

Turning to B29, the “KD ratio” value was determined as 1.15. Under B30 stands 1.25; under B31, 1.27.

For the molecule B32, the “KD ratio” value came out at 0.76.
